Assay results taken from paper PMC4802085, “Haem-dependent dimerization of PGRMC1/Sigma-2 receptor facilitates cancer proliferation and chemoresistance” (Nature Communications, 2016).

Target: T1, purified EGFR (epidermal growth factor receptor) (human, UniProt P00533 25-1210)
T1 construct: epidermal growth factor receptor (EGFR), human, full length protein isolated from A431 cells; also called EGFR protein; source: bought: ENZO (BML-SE116), full length protein isolated from human A431 cells
Assay: co-IP; in vitro binding assay: 1 μg purified EGFR with 10 μg FLAG-PGRMC1 (a.a.44–195) treated with 50 μmol l^−1 haemin, anti-FLAG (M2) agarose; 20 mmol l^−1 HEPES-NaOH (pH 7.9), 100 mmol l^−1 NaCl, 0.2 mmol l^−1 EDTA, 10% glycerol, 0.1% NP40, room temperature
Conditions: both partners purified

B1: FLAG-PGRMC1 wild-type (a.a.44–195) (domain or fragment)
chain: not shown
notes: progesterone-receptor membrane component 1 (PGRMC1), human, cytosolic domain a.a.44–195; The cloning of the FLAG-tagged 44–195 construct is not described; probably made like the other a.a.44–195 proteins (pGEX6P-1, E. coli BL21 (DE3), GST cleaved); Used as apo form or treated with 50 μmol l^−1 haemin; also called FLAG-PGRMC1 wt (a.a.44–195); cytosolic domain of wild-type PGRMC1
binding result: binds
